According to the Human Domainome abundance scans (Beltran et al. 2025):

B1: Double-stranded RNA-binding protein Staufen homolog 1, residues 183 to 249; numbered along this chain, O95793 (parent)
chain: KSEISQVFEIALKRNLPVNFEVARESGPPHMKNFVTKVSVGEFVGEGEGKSKKISKKNAAIAVLEEL

Variants of: B1
Test: abundance fitness (aPCA) (normalised: wild type 0, dead -1); higher = more abundant; growth selection in yeast, the domain comes from the species named
Conditions: Homo sapiens

Abundance fitness of substitutions, site by site:
G45: T -0.246, V -0.345, W -0.582, Y -0.422
E46: A -0.151, C -0.034, F 0.076, G -0.449, H 0.011, I 0.052, K -0.04, M 0.028, N 0.01, P -0.939, Q 0.051, S -0.051, T 0.071, V 0.036, W 0.039, Y -0.013
G47: C -0.976, E -0.773, F -0.945, H -0.555, I -0.897, K -0.81, M -0.874, P -0.763, Q -0.611, R -0.627, S -0.667, T -0.868, V -0.834, W -1.01, Y -0.945
E48: A 0.001, C 0.064, D -0.427, F -0.01, H -0.061, I 0.128, K 0.089, L -0.044, M -0.013, N -0.045, P -0.808, Q 0.054, R 0.104, S 0.007, T 0.037, V 0.048, W -0.011, Y 0.002
G49: A -0.485, C -0.911, D -0.519, E -0.74, F -1.14, H -0.53, I -0.791, L -0.802, M -0.729, N -0.748, P -0.854, Q -0.741, S -0.483, T -0.8, V -0.694, W -1.14, Y -1
K50: A -0.035, C -0.036, D -0.17, E -0.004, F -0.406, G -0.184, I -0.145, L -0.132, M -0.117, N 0.009, P 0.078, Q -0.036, R -0.006, S -0.007, T -0.048, V -0.127, W -0.221, Y -0.187
S51: E -0.553, F -0.929, G -0.791, H -1, I -0.904, K -0.344, L -0.797, M -0.587, P -0.449, Q -0.445, R -0.244, T 0.056, V -0.615, W -0.578, Y -0.657
K52: A -0.125, C -0.432, D -0.587, F -0.481, G -0.603, H -0.518, I -0.175, L -0.228, M -0.29, N -0.622, P -0.179, Q -0.318, R -0.098, S -0.416, T -0.52, V -0.243, Y -0.329
K53: A -0.129, C -0.284, D -0.192, E -0.049, F -0.175, G -0.243, H -0.263, I -0.225, L -0.235, M -0.278, N -0.243, P -0.284, Q -0.207, R -0.042, T -0.311, V -0.22, W -0.214
I54: A -0.063, C -0.26, D -0.04, E 0.09, F -0.661, H -0.221, K -0.081, L -0.017, M -0.051, P -0.724, Q -0.052, R -0.23, S -0.066, T -0.132, V -0.075, W -0.619, Y -0.642
S55: A -0.092, C -0.535, D -0.918, E -0.662, F -0.915, G -0.818, H -0.895, I -0.718, K -0.889, L -0.843, M -0.931, N -0.8, Q -0.769
